Results: the supplement of paper PMC10567573

B1: CLCN6 (parent)
chain: FQSISLRKIQFNFPYFRSDRDKRD

Variants of: B1
Assay: protein stability index of a GFP-peptide fusion (GPS, HEK-293T) (PSI 1-6); higher = more stable
Conditions: c terminus: a fixed tail appended
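Also: lentivirally expressed fusions sorted by FACS into six bins by GFP to DsRed ratio, PSI derived from sequencing read proportions per bin multiplied by bin number.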

Question: With QQSISLRKIQFNFPYFRSDRDKRD as the variant, how does the protein stability index read?
Answer: Its protein stability index is 3.52.

Question: For RQSISLRKIQFNFPYFRSDRDKRD, which protein stability index is on record?
Answer: Its protein stability index is 2.07.

Question: For SQSISLRKIQFNFPYFRSDRDKRD, which protein stability index is on record?
Answer: The protein stability index was 3.4.

Question: With TQSISLRKIQFNFPYFRSDRDKRD as the variant, how does the protein stability index read?
Answer: Its protein stability index is 2.77.

Question: Which protein stability index does the source give for FASISLRKIQFNFPYFRSDRDKRD here?
Answer: Its protein stability index is 2.17.

Question: Which protein stability index does the source give for FCSISLRKIQFNFPYFRSDRDKRD here?
Answer: Its protein stability index is 1.9.

Question: Which protein stability index does the source give for FDSISLRKIQFNFPYFRSDRDKRD here?
Answer: Its protein stability index is 2.46.

Question: Which protein stability index does the source give for FESISLRKIQFNFPYFRSDRDKRD here?
Answer: Its protein stability index is 2.69.

Question: Which protein stability index does the source give for FFSISLRKIQFNFPYFRSDRDKRD here?
Answer: The protein stability index was 1.53.

Question: Which protein stability index does the source give for FGSISLRKIQFNFPYFRSDRDKRD here?
Answer: The protein stability index was 1.54.

Question: For FISISLRKIQFNFPYFRSDRDKRD, which protein stability index is on record?
Answer: The protein stability index was 1.06.

Question: With FKSISLRKIQFNFPYFRSDRDKRD as the variant, how does the protein stability index read?
Answer: Its protein stability index is 2.5.

Question: Which protein stability index does the source give for FLSISLRKIQFNFPYFRSDRDKRD here?
Answer: The protein stability index was 2.31.

Question: Which protein stability index does the source give for FNSISLRKIQFNFPYFRSDRDKRD here?
Answer: Its protein stability index is 1.62.

Question: For FRSISLRKIQFNFPYFRSDRDKRD, which protein stability index is on record?
Answer: Its protein stability index is 1.91.

Question: Which protein stability index does the source give for FSSISLRKIQFNFPYFRSDRDKRD here?
Answer: The protein stability index was 1.96.

Question: With FTSISLRKIQFNFPYFRSDRDKRD as the variant, how does the protein stability index read?
Answer: The protein stability index was 2.73.

Question: With FVSISLRKIQFNFPYFRSDRDKRD as the variant, how does the protein stability index read?
Answer: The protein stability index was 5.36.

Question: With FYSISLRKIQFNFPYFRSDRDKRD as the variant, how does the protein stability index read?
Answer: The protein stability index was 1.33.

Question: Which protein stability index does the source give for FQAISLRKIQFNFPYFRSDRDKRD here?
Answer: The protein stability index was 1.4.

Question: For FQDISLRKIQFNFPYFRSDRDKRD, which protein stability index is on record?
Answer: The protein stability index was 2.19.

Question: For FQEISLRKIQFNFPYFRSDRDKRD, which protein stability index is on record?
Answer: The protein stability index was 2.73.

Question: For FQFISLRKIQFNFPYFRSDRDKRD, which protein stability index is on record?
Answer: The protein stability index was 2.58.

Question: With FQGISLRKIQFNFPYFRSDRDKRD as the variant, how does the protein stability index read?
Answer: Its protein stability index is 1.89.

Question: With FQHISLRKIQFNFPYFRSDRDKRD as the variant, how does the protein stability index read?
Answer: Its protein stability index is 1.46.

Question: For FQIISLRKIQFNFPYFRSDRDKRD, which protein stability index is on record?
Answer: Its protein stability index is 1.74.

Question: With FQLISLRKIQFNFPYFRSDRDKRD as the variant, how does the protein stability index read?
Answer: Its protein stability index is 1.08.

Question: For FQNISLRKIQFNFPYFRSDRDKRD, which protein stability index is on record?
Answer: The protein stability index was 1.82.

Question: Which protein stability index does the source give for FQPISLRKIQFNFPYFRSDRDKRD here?
Answer: The protein stability index was 2.29.

Question: With FQQISLRKIQFNFPYFRSDRDKRD as the variant, how does the protein stability index read?
Answer: The protein stability index was 1.66.

Question: With FQRISLRKIQFNFPYFRSDRDKRD as the variant, how does the protein stability index read?
Answer: The protein stability index was 1.38.

Question: Which protein stability index does the source give for FQTISLRKIQFNFPYFRSDRDKRD here?
Answer: Its protein stability index is 1.79.

Question: For FQWISLRKIQFNFPYFRSDRDKRD, which protein stability index is on record?
Answer: Its protein stability index is 2.4.

Question: Which protein stability index does the source give for FQSASLRKIQFNFPYFRSDRDKRD here?
Answer: The protein stability index was 2.71.

Question: With FQSDSLRKIQFNFPYFRSDRDKRD as the variant, how does the protein stability index read?
Answer: The protein stability index was 2.05.

Question: Which protein stability index does the source give for FQSESLRKIQFNFPYFRSDRDKRD here?
Answer: The protein stability index was 1.91.

Question: With FQSGSLRKIQFNFPYFRSDRDKRD as the variant, how does the protein stability index read?
Answer: Its protein stability index is 2.02.

Question: Which protein stability index does the source give for FQSLSLRKIQFNFPYFRSDRDKRD here?
Answer: Its protein stability index is 2.44.

Question: Which protein stability index does the source give for FQSMSLRKIQFNFPYFRSDRDKRD here?
Answer: The protein stability index was 3.

Question: Which protein stability index does the source give for FQSNSLRKIQFNFPYFRSDRDKRD here?
Answer: The protein stability index was 1.98.

Question: For FQSPSLRKIQFNFPYFRSDRDKRD, which protein stability index is on record?
Answer: The protein stability index was 2.19.

Question: Which protein stability index does the source give for FQSQSLRKIQFNFPYFRSDRDKRD here?
Answer: The protein stability index was 1.9.

Question: For FQSSSLRKIQFNFPYFRSDRDKRD, which protein stability index is on record?
Answer: Its protein stability index is 1.74.

Question: For FQSTSLRKIQFNFPYFRSDRDKRD, which protein stability index is on record?
Answer: Its protein stability index is 2.21.

Question: For FQSVSLRKIQFNFPYFRSDRDKRD, which protein stability index is on record?
Answer: Its protein stability index is 1.98.

Question: Which protein stability index does the source give for FQSYSLRKIQFNFPYFRSDRDKRD here?
Answer: The protein stability index was 1.42.

Question: Which protein stability index does the source give for FQSIALRKIQFNFPYFRSDRDKRD here?
Answer: Its protein stability index is 1.82.

Question: With FQSIDLRKIQFNFPYFRSDRDKRD as the variant, how does the protein stability index read?
Answer: Its protein stability index is 1.96.

Question: For FQSIELRKIQFNFPYFRSDRDKRD, which protein stability index is on record?
Answer: Its protein stability index is 2.21.

Question: For FQSIFLRKIQFNFPYFRSDRDKRD, which protein stability index is on record?
Answer: Its protein stability index is 2.62.

Question: With FQSIGLRKIQFNFPYFRSDRDKRD as the variant, how does the protein stability index read?
Answer: Its protein stability index is 1.02.

Question: Which protein stability index does the source give for FQSIHLRKIQFNFPYFRSDRDKRD here?
Answer: The protein stability index was 1.74.

Question: With FQSIILRKIQFNFPYFRSDRDKRD as the variant, how does the protein stability index read?
Answer: The protein stability index was 1.4.

Question: For FQSIKLRKIQFNFPYFRSDRDKRD, which protein stability index is on record?
Answer: The protein stability index was 1.7.

Question: With FQSIMLRKIQFNFPYFRSDRDKRD as the variant, how does the protein stability index read?
Answer: The protein stability index was 1.46.

Question: Which protein stability index does the source give for FQSINLRKIQFNFPYFRSDRDKRD here?
Answer: The protein stability index was 1.82.

Question: Which protein stability index does the source give for FQSIPLRKIQFNFPYFRSDRDKRD here?
Answer: Its protein stability index is 1.82.

Question: For FQSIQLRKIQFNFPYFRSDRDKRD, which protein stability index is on record?
Answer: The protein stability index was 1.66.

Question: With FQSIRLRKIQFNFPYFRSDRDKRD as the variant, how does the protein stability index read?
Answer: Its protein stability index is 1.77.

Question: Which protein stability index does the source give for FQSITLRKIQFNFPYFRSDRDKRD here?
Answer: The protein stability index was 1.42.

Question: For FQSIYLRKIQFNFPYFRSDRDKRD, which protein stability index is on record?
Answer: Its protein stability index is 1.98.

Question: Which protein stability index does the source give for FQSISARKIQFNFPYFRSDRDKRD here?
Answer: The protein stability index was 2.68.

Question: With FQSISCRKIQFNFPYFRSDRDKRD as the variant, how does the protein stability index read?
Answer: The protein stability index was 1.53.

Question: Which protein stability index does the source give for FQSISERKIQFNFPYFRSDRDKRD here?
Answer: Its protein stability index is 2.08.

Question: With FQSISHRKIQFNFPYFRSDRDKRD as the variant, how does the protein stability index read?
Answer: The protein stability index was 2.03.

Question: With FQSISNRKIQFNFPYFRSDRDKRD as the variant, how does the protein stability index read?
Answer: The protein stability index was 1.68.

Question: For FQSISPRKIQFNFPYFRSDRDKRD, which protein stability index is on record?
Answer: The protein stability index was 2.78.

Question: Which protein stability index does the source give for FQSISQRKIQFNFPYFRSDRDKRD here?
Answer: The protein stability index was 2.13.

Question: Which protein stability index does the source give for FQSISSRKIQFNFPYFRSDRDKRD here?
Answer: The protein stability index was 1.66.

Question: For FQSISTRKIQFNFPYFRSDRDKRD, which protein stability index is on record?
Answer: Its protein stability index is 2.59.

Question: With FQSISLAKIQFNFPYFRSDRDKRD as the variant, how does the protein stability index read?
Answer: The protein stability index was 2.38.

Question: For FQSISLCKIQFNFPYFRSDRDKRD, which protein stability index is on record?
Answer: Its protein stability index is 1.81.

Question: With FQSISLEKIQFNFPYFRSDRDKRD as the variant, how does the protein stability index read?
Answer: Its protein stability index is 2.56.

Question: With FQSISLHKIQFNFPYFRSDRDKRD as the variant, how does the protein stability index read?
Answer: Its protein stability index is 2.02.

Question: Which protein stability index does the source give for FQSISLIKIQFNFPYFRSDRDKRD here?
Answer: Its protein stability index is 1.77.

Question: Which protein stability index does the source give for FQSISLKKIQFNFPYFRSDRDKRD here?
Answer: The protein stability index was 1.59.

Question: With FQSISLLKIQFNFPYFRSDRDKRD as the variant, how does the protein stability index read?
Answer: The protein stability index was 1.37.

Question: Which protein stability index does the source give for FQSISLMKIQFNFPYFRSDRDKRD here?
Answer: The protein stability index was 1.21.

Question: With FQSISLNKIQFNFPYFRSDRDKRD as the variant, how does the protein stability index read?
Answer: Its protein stability index is 1.97.

Question: With FQSISLPKIQFNFPYFRSDRDKRD as the variant, how does the protein stability index read?
Answer: The protein stability index was 3.68.

Question: Which protein stability index does the source give for FQSISLQKIQFNFPYFRSDRDKRD here?
Answer: Its protein stability index is 1.62.

Question: Which protein stability index does the source give for FQSISLSKIQFNFPYFRSDRDKRD here?
Answer: The protein stability index was 2.4.

Question: Which protein stability index does the source give for FQSISLTKIQFNFPYFRSDRDKRD here?
Answer: Its protein stability index is 1.78.

Question: With FQSISLVKIQFNFPYFRSDRDKRD as the variant, how does the protein stability index read?
Answer: The protein stability index was 2.97.

Question: Which protein stability index does the source give for FQSISLWKIQFNFPYFRSDRDKRD here?
Answer: Its protein stability index is 1.77.

Question: Which protein stability index does the source give for FQSISLRCIQFNFPYFRSDRDKRD here?
Answer: Its protein stability index is 1.75.

Question: For FQSISLREIQFNFPYFRSDRDKRD, which protein stability index is on record?
Answer: Its protein stability index is 2.63.

Question: Which protein stability index does the source give for FQSISLRHIQFNFPYFRSDRDKRD here?
Answer: The protein stability index was 2.92.

Question: Which protein stability index does the source give for FQSISLRIIQFNFPYFRSDRDKRD here?
Answer: Its protein stability index is 2.78.

Question: With FQSISLRLIQFNFPYFRSDRDKRD as the variant, how does the protein stability index read?
Answer: Its protein stability index is 2.64.

Question: Which protein stability index does the source give for FQSISLRMIQFNFPYFRSDRDKRD here?
Answer: Its protein stability index is 2.08.

Question: Which protein stability index does the source give for FQSISLRNIQFNFPYFRSDRDKRD here?
Answer: Its protein stability index is 2.18.

Question: Which protein stability index does the source give for FQSISLRPIQFNFPYFRSDRDKRD here?
Answer: Its protein stability index is 2.92.

Question: With FQSISLRQIQFNFPYFRSDRDKRD as the variant, how does the protein stability index read?
Answer: The protein stability index was 2.12.
